Experimental data: patent US20110201118

Experiments:
[1] = system: TAL/GFP-L dTALEN (synthetic construct); test: cell_activity; conditions: paired with TAL/GFP-R; 5/10 clones at 0.5 ug/well in HEK293T; 0/4 without TALEN
[2] = system: TAL/GFP-R dTALEN (synthetic construct); test: cell_activity; conditions: paired with TAL/GFP-L; 5/10 clones at 0.5 ug/well in HEK293T; 0/4 without TALEN

| Substance | activity (% clones with deletions) [1] | activity (% clones with deletions) [2] |
| --- | --- | --- |
| eGFP target, TAL/GFP-L half-site | 50 | – |
| eGFP target, TAL/GFP-R half-site | – | 50 |
